We go through two molecules from publication PMC12527946 (2025).

Some targets named below: Clu mutant CC3 (human, UniProt P10909 23-227; P10909 228-449); TL4; Clu mutant TL3 (human, UniProt P10909 23-227; P10909 228-449); Clu mutant DD2 (human, UniProt P10909 23-227; P10909 228-449); Clu mutant DD3 (human, UniProt P10909 23-227; P10909 228-449); Clu mutant DD1 (human, UniProt P10909 23-227; P10909 228-449).
Assay in all cases: ELISA
The target in assay [1] is VLDLR(28–797)Δ(751–779)-C-tag (VLDLR ectodomain) (human, UniProt P98155-2 28-797, Δ(751–779)).

B1: VLDLR(28–797)Δ(751–779)-C-tag (VLDLR ectodomain) (receptor)
chain: not shown
What is called Kd is a measure of binding affinity in units of concentration. As for B1, the Kd with Clu mutant CC3 is 109 nM; with TL4, 256 nM; with Clu mutant TL3 it was 989 nM; with Clu mutant DD2, 1190 nM; with Clu mutant DD3, 1180 nM; with Clu mutant DD1 it was 137 nM.

B2: Clu deletion mutant CC1 (natural protein)
chain 1: DQTVSDNELQEMSNQGSKYVNKEIQNAVNGVKQIKTLIEKTNEERKTLLSNLEEAKKKKEDALNETRESETKLKELPGVCNETMMALWEECKPCLKQTCMKFYARVCRSGSGLVGRQLEEFLNQSSPFYFWMNGDRIDSLLENDRQQTHMLDVMQDHFSRASSIIDELFQDRFFTREPQDTYHYLPFSLPHRRPHFFFPKSRIVR
chain 2: SLMPFSPYEPLNFHAMMDIHFHSPAFQHPPTEFIREGDDDRTVCREIRHNSTGCLRMKDQCDKCREILSVDCSTNNPSQAKLRRELDESLQVAERLTRKYNELLKSYQWKMLNTSSLLEQLNEQFNWVSRLANLTQGEDQYYLRVTTVASHTSDSDVPSGVTEVVVKLFDSDPITVTVPVEVSRKNPKFMETVAEKALQEYRKKHREE
modifications: deletion taken as helix α7 = 244-257 as printed; exact CC1 limits only in Fig. 3a; five interchain disulfides; six N-glycans Secreted from HEK293E, glycosylated, Ca2+-bound LDLR repeats, disulfides; C-terminal C-tag left out. Deletion 751-779 taken as printed, in the numbering of the long isoform
Take B2: the Kd in assay [1] is 662 nM.
